From the nanobody polyreactivity screen of Harvey et al. (2022)

Experiment: yeast display, Sf9 membrane polyspecificity reagent, FACS + sequencing; frameworks hold sequencing errors
Summary of the method: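 Polyreactivity labels are assigned by the sorting gate from which each nanobody was recovered. The gates were low and high (top ~1%), set on anti-HA fluorescence for expression and streptavidin fluorescence for reagent binding. Before sorting, galactose-induced (36–48 hours) yeast display cells were stained for 1 hour at 4 °C with 10% biotinylated, detergent-solubilized Sf9 membrane reagent.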
In the case of “QVQLVESGGGLVQAGGSLRLSCAASGSTFVYYAKGWYRQAPGKEREFVAAISISTGSTYYADSVKGRFTISRDNAKNTVYLQMNSLKPEDTAVYYCAVDWFLGGYDDLDYWGQGTQVTVSS”, the “polyreactivity (PSR sort gate)” value is reported as “low polyreactivity”.
In the case of “QVQLVESGGGLVQAGGSLRLSCAASGSTFVYYAMGWYRQAPGKERELVARISSTGSTNYADSVKGRFTISRDNAKNTVYLQMHSLKPEDTAVYYCAARGPSPGHGTYTRTRGQSYYYWGQCTQVTVSS”, the “polyreactivity (PSR sort gate)” value is reported as “high polyreactivity”.
In the case of “QVQLVESGGGLVQAGGSLRLSCAASGSTFVYYTMGLYRQAPGKERELVAAISWRGDDTYYSDSVKGRFTISRDNAKNTVYLQMNSLKPEDTAVYYCAGEPVSTYYWTFGDYWGQGYQVTVSS”, the “polyreactivity (PSR sort gate)” value is reported as “low polyreactivity”.
With “QVQLVESGGGLVQAGGSLRLSCAASGSTFVYYVMGWYRQAPGKQRELVAAISTSGGSTYYADSVKGRFTISRDNAKKTVYLQMNSLKPEDTAVYYCAARVYYKYDYWGQGTQVTVSS” the “polyreactivity (PSR sort gate)” value was “low polyreactivity”.
In the case of “QVQLVESGGGLVQAGGSLRLSCAASGSTFWANAMGWYRPAPGKERELLAGITWNAGSTYYADSVKGRYTISRDNAKNNVYLQLNSLKPEDTAVYYCAAYYHFQGWGPGYNSCGQGTQVTVSS”, the “polyreactivity (PSR sort gate)” value is reported as “low polyreactivity”.
With “QVQLVESGGGLVQAGGSLRLSCAASGSTFWANAMGWYRPAPGKERELVAAISRNGGSTYYADSVKGRFTISRDNAKNTVYLQMNSLKPEDTAVYYCAAKKYYYRRQLDYWGQGTQVTVSS” the “polyreactivity (PSR sort gate)” value was “high polyreactivity”.
With “QVQLVESGGGLVQAGGSLRLSCAASGSTFWDNAMGWYRQAPGKERELVAAITAIGGTTYYADSVKGRFTISRDNAKNTVYLQMNSLKPEDTAVYYCAADWTTYGFSYFSIYYYWGQGTQVTVSS” the “polyreactivity (PSR sort gate)” value was “low polyreactivity”.
For “QVQLVESGGGLVQAGGSLRLSCAASGSTFWDYAMGWYRQAHGKERELVAAITDSGGSTYYADSVKGRFTISRDNAKNTVYLQMNSLKPEDTAVYYCAAEAYIWWAWEYEYWGQGPQVTVSS”, the “polyreactivity (PSR sort gate)” value was “high polyreactivity”.
For “QVQLVESGGGLVQAGGSLRLSCAASGSTFWDYAMGWYRQAPGKERELVASISSGGRTYYADSVKGRFTISRDNAKNTVYLQMNSLKPEDTAVYYCARRSWWDYYSWGQGTQVTVSS”, the “polyreactivity (PSR sort gate)” value was “high polyreactivity”.
For “QVQLVESGGGLVQAGGSLRLSCAASGSTFWENSMGWYRQAPGKERELVAAISWGGGSTYYADSVKGRFTISRDNAKNTVYLQMNSLKPEDTAGYYCAADQTSPQFLTSYGGYNYWGQGTQVTVSS”, the “polyreactivity (PSR sort gate)” value was “low polyreactivity”.
For “QVQLVESGGGLVQAGGSLRLSCAASGSTFWEYVMGWYRQAPGKERELVAAITTNDDSTYYADSVKGRFTISRDNAKNTVYLQMNSLKPEDTAVYYFNADQITGQFDYWGQGTQVTVSS”, the “polyreactivity (PSR sort gate)” value was “low polyreactivity”.
For “QVQLVESGGGLVQAGGSLRLSCAASGSTFWFYAMGWYRQAPGKERELVAVISNSGSTYYADSVKGRFTISRDNAKNTVYLQMNSLKPEDTAVYYCAAYAYQYRFSGYGYWGQGTQVTVSS”, the “polyreactivity (PSR sort gate)” value was “low polyreactivity”.
In the case of “QVQLVESGGGLVQAGGSLRLSCAASGSTFWFYPMGRYRQAPGKERELVAVISNSGSTYYADSVKGRFTISRDNAKNTVYLQMNSLKPEDTAVYYCNKDGGGDSYWYDYWGQGTQVTVSS”, the “polyreactivity (PSR sort gate)” value is reported as “low polyreactivity”.
With “QVQLVESGGGLVQAGGSLRLSCAASGSTFWGYAMGWYRQAPGKERELVAAITSGGRTDYADSVKGRFTISRHNAKNTVYLQMNSRKPEDTAVYYCNAYLYYYRYHYNYWGQGTQVTVSS” the “polyreactivity (PSR sort gate)” value was “low polyreactivity”.
With “QVQLVESGGGLVQAGGSLRLSCAASGSTFWGYAMGWYRQAPGKERELVATINQSAGSTYYADSVKGRFTISRDNAKNTVYLQMNSLKPEDTAVYYCAAEARVQFSYDYWGQGTQVTVSS” the “polyreactivity (PSR sort gate)” value was “low polyreactivity”.
For “QVQLVESGGGLVQAGGSLRLSCAASGSTFWKYAMGWYRQAPGKERELVARISRNGGSTYYADSVKGRFTISRDNAKNTVYLQMNSLKPEDTAVYYCATAYVHYVYKYDYWGQGTQVTVSS”, the “polyreactivity (PSR sort gate)” value was “high polyreactivity”.
For “QVQLVESGGGLVQAGGSLRLSCAASGSTFWLNAMGWYRQAPGKEREFVAAITWSSGSTYYADSVKGRFTISRDNAKNTVYLQMNSLKPEDTAVYYCAADGRYVRIRGDYWGQGTQVTVSS”, the “polyreactivity (PSR sort gate)” value was “low polyreactivity”.
For “QVQLVESGGGLVQAGGSLRLSCAASGSTFWLYAMGWYREAPGKERELVATISERGGSTYYADSVKGRFTISRDYAKNTVYFQMNSLKPEDTAVYYCAADQFHYPRGRRYDYWGQGTQVTVSS”, the “polyreactivity (PSR sort gate)” value was “low polyreactivity”.
In the case of “QVQLVESGGGLVQAGGSLRLSCAASGSTFWLYAMGWYRQAPGKEREFVATISSSTTYYADSVKGRFTISRDNAKNTVYFQMNSLKPQDTAVYYCNAADYYSDVWSSVDYEGDYWGQGTQVTVSS”, the “polyreactivity (PSR sort gate)” value is reported as “low polyreactivity”.
For “QVQLVESGGGLVQAGGSLRLSCAASGSTFWLYAMGWYRQAPGKERELVATISERGGSTYYADSVKGRFTISRDNAKNTVYLQMNSLKPEDTAVYYCAADQFHYPRGRRYDYWGQGTQVTVSS”, the “polyreactivity (PSR sort gate)” value was “low polyreactivity”.
For “QVQLVESGGGLVQAGGSLRLSCAASGSTFWNYAMGWYRQAPGKERELVASIDSSDGRTYYADSVKGRYTISRDNAKTTVYVQMNSLKPEDTAAYYCAKDAYAVELRPYSKLSSRAVGYWGQGTQVTVSS”, the “polyreactivity (PSR sort gate)” value was “low polyreactivity”.
For “QVQLVESGGGLVQAGGSLRLSCAASGSTFWPNAMGWYRQAPGKERELVAGITTSSGSTFYAHSVKGRFTISRDNAKNTVYLQMNSLKPEDTAVYDCNARVRRRRYKYDYWGQGTQVTVSS”, the “polyreactivity (PSR sort gate)” value was “high polyreactivity”.
With “QVQLVESGGGLVQAGGSLRLSCAASGSTFWPYALGWYRQAPVKERELVAAITNSGGSTYYADSVKGRFTISRDNAKNTVYLQMNSLKPEDTAVYYCAVRGVIYSYTPVNSYVFWGQGTQVTVSS” the “polyreactivity (PSR sort gate)” value was “low polyreactivity”.
For “QVQLVESGGGLVQAGGSLRLSCAASGSTFWPYAMGWYRQAPGKERELVAAISNGGGTKYADSVKGRFTISRDNAKNTVYLQMNSLKPEDTAVYYCAKTLWTGRAWYDYWGQGTQVTVSS”, the “polyreactivity (PSR sort gate)” value was “high polyreactivity”.
In the case of “QVQLVESGGGLVQAGGSLRLSCAASGSTFWPYAMGWYRQAPGKERELVAAITSSDVNTNYADSVKGRFTISRDNAKNTVYLQMNSLKPEDTAVYYCAADQYQYDPTYGYDYWGQGTQVTVSS”, the “polyreactivity (PSR sort gate)” value is reported as “low polyreactivity”.
For “QVQLVESGGGLVQAGGSLRLSCAASGSTFWSNPMGWYRQAPGKERELVAAISISDGNTYYADSVKGRFTISRDNAKNTVYLQMNSLKPDDTAVYYCATVGSEDGDPGFDYWGQGTQVTVSS”, the “polyreactivity (PSR sort gate)” value was “low polyreactivity”.
For “QVQLVESGGGLVQAGGSLRLSCAASGSTFWSNVMGWYRQAPGKESELVSAISYGGVTTSYADSVKGRFTISRDNAKNTVYLQKNSLKPEDTAVYYCATDYVGYYFYVSDYWGQGTQVTVSS”, the “polyreactivity (PSR sort gate)” value was “low polyreactivity”.
In the case of “QVQLVESGGGLVQAGGSLRLSCAASGSTFWSYAMGWYRQAPGKEREFVAAISRSGDSTYYADSVKGRFTISRDNAKNTVYLQMNSLNPEDTAVYYCNAKLVRRSYGSYYYTYDYWGQGSQVTVSS”, the “polyreactivity (PSR sort gate)” value is reported as “high polyreactivity”.
In the case of “QVQLVESGGGLVQAGGSLRLSCAASGSTFWSYTMGWYRQAPGKERELVAAISRSGGSTYYADSVKGRFTISRDNAKNTVYLQMNSLKPEDTAVYYCAADDRYGSRYYYWGQGTQVTVSS”, the “polyreactivity (PSR sort gate)” value is reported as “high polyreactivity”.
In the case of “QVQLVESGGGLVQAGGSLRLSCAASGSTFWSYTMGWYRQAPWKERDLVARNTGRGGSTYYADSVKGRFTISRDNEKNTVYLLMNSLKTEDTAVYYCAAGGGRYGFYRFDYWRQGTQVTVSS”, the “polyreactivity (PSR sort gate)” value is reported as “low polyreactivity”.
In the case of “QVQLVESGGGLVQAGGSLRLSCAASGSTFWTNAMGWYRQAPGKERELVATITYSTGTYADSVKGRFTISRDNAKNTVYLQMNSLKPEDTAVYYCAADFWYRTVYGYFGYVYWGQGTQVTVSS”, the “polyreactivity (PSR sort gate)” value is reported as “low polyreactivity”.
In the case of “QVQLVESGGGLVQAGGSLRLSCAASGSTFWVNVMGWYRQAPGKERELVAAITTGSSPYYADSVKGRFTISRDNAKNTVYLQMNSLKPEDTAVYYCNVFQGTRYGYWGQGTQVTVSS”, the “polyreactivity (PSR sort gate)” value is reported as “low polyreactivity”.
With “QVQLVESGGGLVQAGGSLRLSCAASGSTFWWNTMGWYRQAPGKESELVADIRTSGGGTYYADSVKGRFTISRDNAKNTVYLQMNSLKPEDTAVYYCNADPKWEMGSWGQGTQVTVSS” the “polyreactivity (PSR sort gate)” value was “low polyreactivity”.
In the case of “QVQLVESGGGLVQAGGSLRLSCAASGSTFWYNAMGWYRQAPGKERELVAAISRSGATTYYADSVKGRFTISRDNAKNTVYLQMNSLKPEDTAVYYCNAVISPSSYVRNSDYWGQGTQVTVSS”, the “polyreactivity (PSR sort gate)” value is reported as “low polyreactivity”.
With “QVQLVESGGGLVQAGGSLRLSCAASGSTFWYNAMGWYRQAPGTEREFVAAISSRGGNTFYADSVKGRFTISRDNAKNTVYLQMNSLKPEDTAVYYCDARFNRPYDYWGQGTQVTVSS” the “polyreactivity (PSR sort gate)” value was “low polyreactivity”.
In the case of “QVQLVESGGGLVQAGGSLRLSCAASGSTFWYNDMGWYRQAPGKETELVASISWSGGDTYYADSVKGRFTISRDNAKNTVYLQMNSLKPEDTAVYYCAKGNNWISRLMDYWGQGTQVTVSS”, the “polyreactivity (PSR sort gate)” value is reported as “low polyreactivity”.
With “QVQLVESGGGLVQAGGSLRLSCAASGSTFWYYAMGWYRQAPGKERELVAAISRGGNTYYADSVKGRFTISRDNAKNTVYLQMNSLKPEDTAVYYCAARVHYWYPSTGHHYWGQGTQVTVSS” the “polyreactivity (PSR sort gate)” value was “high polyreactivity”.
In the case of “QVQLVESGGGLVQAGGSLRLSCAASGSTFWYYAMGWYRQAPGKERELVAAITSGDSTYYADSVKGRFTISRDNAKNTVYLQMNSLKPEDTAVYYCAADLPWEDGYYFYSGYTEYDYWGQGTQVTVSS”, the “polyreactivity (PSR sort gate)” value is reported as “low polyreactivity”.
In the case of “QVQLVESGGGLVQAGGSLRLSCAASGSTFWYYAMGWYRQAPGKERELVADITYSGVSTYYADSVKGRFTISRDNAKNTVYLQMNSLKPEDTAVYYCNADWGSVNGYSGYYYWGQGTQVTVSS”, the “polyreactivity (PSR sort gate)” value is reported as “low polyreactivity”.
With “QVQLVESGGGLVQAGGSLRLSCAASGSTFWYYTMGWYRQAPGKERELVAAISKSGTNTYYADSVKGRFTISRDQAKNTVYLQMNSLKPEDTAVDYCNALTKTGTPPDYDYWGQGTQVTVSS” the “polyreactivity (PSR sort gate)” value was “high polyreactivity”.
For “QVQLVESGGGLVQAGGSLRLSCAASGSTFWYYVMGWYRQAPGKERELVAAISTRGDSTYYADSVKGRFTISRDNAKNTVYLQMNSLKPEETAVYYCAKYRQSSGRVRFDYWGQGTQVTVSS”, the “polyreactivity (PSR sort gate)” value was “low polyreactivity”.
For “QVQLVESGGGLVQAGGSLRLSCAASGSTFYANAMGWYIQPPGKERELVAAISRSGGRTYYADSVKGRFTISRDTAKKTVYLQMNSLKTEDNSVYYCAKAYHHSEFDYWGQGTQVTVSS”, the “polyreactivity (PSR sort gate)” value was “high polyreactivity”.
With “QVQLVESGGGLVQAGGSLRLSCAASGSTFYANAMGWYRQAPGKERELVATINRRGNKYYADSVKGRFTISRDHAKNTVYLQMNSLKPEDTAVYYCAADAWVGWHDEYDYWGQGTQVTVSS” the “polyreactivity (PSR sort gate)” value was “low polyreactivity”.
